Values quoted from earlier work, collected in article PMC3197213.

Molecular target: syntaxin-1 SNARE motif (Rattus norvegicus) (UniProt P32851)
Sequence (P32851 191-253): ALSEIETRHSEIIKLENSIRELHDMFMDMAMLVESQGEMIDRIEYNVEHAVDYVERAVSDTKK

Kd: 46 µM
Substance: Munc13-1 MUN domain (from UniProt Q62768)
